Reference: PMC4030970, “Structural Evidence for the Tetrameric Assembly of Chemokine CCL11 and the Glycosaminoglycan Arixtra™” (Biomolecules, 2013)
Values joined by “and” are separate entries in the source; they are usually repeats but may differ in a detail not shown here. Equal entries are not always repeated.

How the values were obtained:
[1] = biological target: human chemokine CCL11 (Eotaxin-1) (human) (UniProt P51671); experiment: native MS; ion mobility MS (Waters Synapt G2 HDMS), nanospray; equimolar (1:1) mixture of CCL11 and Arixtra in 250 mM ammonium acetate; oligomers seen unbound and bound to Arixtra; MS/MS of the [tetramer+Arixtra]12+ ion gives monomer and trimer+Arixtra
[2] = biological target: human chemokine CCL11 (Eotaxin-1) (human) (UniProt P51671); experiment: native MS; ion mobility MS (Waters Synapt G2 HDMS), nanospray; CCL11 alone at 20 μM in 250 mM ammonium acetate (pH 6.8), native conditions
[3] = biological target: human chemokine CCL11 (Eotaxin-1) (human) (UniProt P51671); experiment: crystal structure; very preliminary X-ray structure of the CCL11 tetramer bound to Arixtra; de-twinned; Rfactor 17.6%, Rfree 26.7%; not deposited

- stoichiometry N ([1]; Dimer + Arixtra): 2
- stoichiometry N ([1]; Tetramer + Arixtra): 4
- stoichiometry N [2]: 4 and 2
- stoichiometry N [3]: 4
Substance: human chemokine CCL11 (Eotaxin-1), P51671 24-97 (natural protein; other documents disagree on this pair)
